In general, EC50 refers to the concentration needed to bring the measured effect to its halfway point. A lower EC50 goes with a more potent agent.

In publication PMC10156745, “Tuning charge density of chimeric antigen receptor optimizes tonic signaling and CAR-T cell fitness” (Cell Research, 2023) one finds EC50 data, which are given here for one molecule.

This assay has as its target T1, CD19 on Nalm6 cells (Homo sapiens, UniProt P15391).
T1 construct: CD19 (B-lymphocyte antigen CD19) on the surface of Nalm6 cells; this is surmised; source: Nalm6 cells expressing CD19 on the cell surface
In words: flow cytometry on cells; purified antibodies titrated on Nalm6 cells expressing CD19; cell-based FACS assay. The settings on record: one partner purified.

T1 sequence (P15391 20-556): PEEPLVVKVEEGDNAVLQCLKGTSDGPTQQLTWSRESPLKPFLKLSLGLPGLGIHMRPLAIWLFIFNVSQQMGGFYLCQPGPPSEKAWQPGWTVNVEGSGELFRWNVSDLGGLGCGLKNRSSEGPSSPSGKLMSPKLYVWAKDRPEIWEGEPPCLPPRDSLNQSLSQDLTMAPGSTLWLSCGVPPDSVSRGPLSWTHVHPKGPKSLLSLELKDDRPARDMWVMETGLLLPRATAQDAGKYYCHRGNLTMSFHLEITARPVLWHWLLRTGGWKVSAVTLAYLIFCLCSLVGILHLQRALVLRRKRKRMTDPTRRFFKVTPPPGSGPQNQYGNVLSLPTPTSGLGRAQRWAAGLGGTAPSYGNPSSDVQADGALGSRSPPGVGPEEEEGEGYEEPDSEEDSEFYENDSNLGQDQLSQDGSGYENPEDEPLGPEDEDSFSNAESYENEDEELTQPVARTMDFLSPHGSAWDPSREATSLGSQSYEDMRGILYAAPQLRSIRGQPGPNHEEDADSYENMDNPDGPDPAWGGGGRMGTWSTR

B1: CD19^M1 antibody (antibody, V domains shown)
VH: EVKLKESGPGLVAPSQSLSVTCKASGVSLPDYGVSWIRQPPRKGLEWLGVIWGSETTYYNSALKSRLTIIKDNSKSQVFLKMNSLQTDDTAIYYCAKHYYYGGSYAMDYWGQGTSVTVSS
VL: DIKMTQTTSSLSASLGDRVTISCRASQDISKYLNWYQQKPDGTVKLLIYHTSRLHSGVPSRFSGSGSGTDYSLTISNLEQEDIATYFCQQGNTLPYTFGGGTKLEIK
notes: as the VH of m1 (FMC63) with uncharged framework residues mutated to lysines; human IgG1 constant region, fused to the variable region in the pCMV plasmid; as the VL of m1 (FMC63) with uncharged framework residues mutated to lysines; light-chain constant region; IgG1 format; Variant of FMC63 with positively charged patches introduced into the framework regions; also called PCP-modified CD19 …
B1 gave a concentration giving a half-maximal response (EC50) of 2.6 nM.
